The record followed here is PMC4839733.

In this experiment the target is SP-VSVG-hGLP-1RΔN23-GFP V36A (human) (UniProt P43220).
UniProt P43220, sequence (P43220 24-463 V36A): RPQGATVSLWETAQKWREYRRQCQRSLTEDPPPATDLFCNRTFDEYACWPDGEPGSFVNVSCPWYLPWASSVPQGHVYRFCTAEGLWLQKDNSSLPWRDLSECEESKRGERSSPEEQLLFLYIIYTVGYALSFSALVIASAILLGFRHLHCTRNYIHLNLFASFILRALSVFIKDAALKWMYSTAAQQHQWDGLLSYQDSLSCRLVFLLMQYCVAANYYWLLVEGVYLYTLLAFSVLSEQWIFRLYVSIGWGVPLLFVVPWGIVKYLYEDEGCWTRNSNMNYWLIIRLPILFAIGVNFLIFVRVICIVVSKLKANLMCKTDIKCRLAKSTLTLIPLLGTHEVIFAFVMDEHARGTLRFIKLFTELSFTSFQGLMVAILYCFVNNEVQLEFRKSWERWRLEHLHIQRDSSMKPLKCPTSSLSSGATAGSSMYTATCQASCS

On to GLP-1 7–37 (liraglutide) (peptide), for which the agonist induced internalisation of hGLP-1R V36A (cell-surface ELISA with the anti-GLP-1R antibody, HEK293 cells) is 12.4%.
